Experimental data: US20050036947A1, “Target-specific activatable polymeric imaging agents” (General Electric Company, priority 2003, published 2005)
Where no end group is shown, it is not given here. [ ]: non-standard residue; d: D form. Hyp = O=C(O)[C@@H]1C[C@@H](O)CN1

Key:
[1] = system: α-fetoprotein (“AFP”) receptor; conditions: MCF-7 human breast cancer cells; cited from earlier work
[2] = Cross-sectional diameter of the conjugated polymer; assay type: physicochemical; conditions: highly conjugated
[3] = Relaxivity of the contrast agent (effect on T1 relaxation of water protons); assay type: physicochemical; conditions: for relaxivity: globular vs elongated conformation
Description: When the carrier molecule is in an elongated conformation, the chelator entity, which provides the MR activity, is free to rotate about its attachment point to the main chain, allowing a […] T1 relaxation time of the surrounding water protons, which are the source of the MR signal. When the carrier molecule is in a globular or highly folded conformation, the paramagnetic ions on the chelator entities tumble at a slower rate (along with the entire molecule). […] A low relaxivity or long relaxation time is associated with an elongated molecule such as a highly substituted Gd-DTPA-PLL, in which the Gd can rotate rapidly, having a relaxivity of about 8 sec^−1 mM^−1. When the relaxivity of a peptide contrast agent was high, the uptake coefficient of such an agent was invariably low, evidently due to the absence of a reptation movement of the contrast agent molecule, resulting in the exclusion of the contrast agent from narrow passages. Thus, it is important to establish that the peptides being compared for optimum length are all of the same conformation.

| Substance | bind to α-fetoprotein (“AFP”) receptor [1] | cross-sectional diameter [2] | relaxivity [3] | relaxivity in bulk water ([3]; highly conjugated (degree of conjugation about 90 percent or higher)) |
| --- | --- | --- | --- | --- |
| EMTOVNOG (EMT[Hyp]VN[Hyp]G) [linear octapeptide; O represents 4-hydroxyproline] | bind |  |  |  |
| EMTOVNOGQ (EMT[Hyp]VN[Hyp]GQ; also: cyclic, mode not given here) [cyclic peptide; O represents 4-hydroxyproline] | bind |  |  |  |
| Gd-DTPA-PLL |  | about 25 angstroms | about 8 sec^−1 mM^−1 | 6.8 to 7.8 mM⁻¹ s⁻¹ |
| albumin |  |  | about 15 sec^−1 mM^−1 |  |
